Several values for one entry are separate records, joined by “and”; a condition that tells them apart may be missing. Identical values can stand only once.
Legend:
SARS-CoV-2 RBD-hFc = SARS-CoV-2 RBD-hFc (SARS-CoV-2); test: Luminex beads
[1] = biological target: receptor binding domain (RBD) portion of the SARS-CoV-2 Spike protein (amino acids Arg319-Phe541) ex (SARS-CoV-2)

| Binder | binding result (SARS-CoV-2 RBD-hFc) | IC50 [1] |
| --- | --- | --- |
| mAb10956 (antibody, V domains shown) VH: EVQLVESGGGLVQPGGSLRLSCAASGLTVSSNYMSWVRQAPGKGLEWVSVIYSGGSTFYADSVKGRFTISRDNSKNTLYLQMNSLRAEDTAVYYCARDLIKYGMDVWGQGTTVTVSS VL: not shown | binds | – |
| mAb10914 (antibody, V domains shown) VH: EVQLVESGGGLVQPGGSLRLSCAASGLIVSRNYMIWVRQAPGKGLEWVSVIYSGGSTFYADSVKGRFTISRHNSKNTLYLQMNSLRAEDTAVYYCARDLGTGGMDVWGQGTTVTVSS VL: DIQLTQSPSFLSASVGDRVTITCWASQGISSYLAWYQQKPGKAPKLLIYAASTLQSGVPSRFSGSGSGTEFTLTISSLQPEDFATYYCQQLNSYPLTFGGGTKVEIKR [mAb10914, listing 1 of 2 here] | – | 0.98 nM |
| mAb10914 (antibody, V domains shown) VH: EVQLVESGGGLVQPGGSLRLSCAASGLIVSRNYMIWVRQAPGKGLEWVSVIYSGGSTFYADSVKGRFTISRHNSKNTLYLQMNSLRAEDTAVYYCARDLGTGGMDVWGQGTTVTVSS VL: DIQLTQSPSFLSASVGDRVTITCWASQGISSYLAWYQQKPGKAPKLLIYAASTLQSGVPSRFSGSGSGTEFTLTISSLQPEDFATYYCQQLNSYPLTFGGGTKVEIKR [mAb10914, listing 2 of 2 here] | binds | – |
| mAb10957 (antibody, V domains shown) VH: EVQLVESGGGLVQPGGSLRLSCAASGVTVSSNYMSWVRQAPGKGLEWVSVIYSGGSTFYADSVKGRFTISRDNSKNTLFLQMNSLRIEDTAVYYCARDLGPYGMDVWGQGTTVTVSS VL: DIQLTQSPSFLSASVGDRVTITCRASQGISSYLAWYQQKPGKAPKLLIYAASTLQSGVPSRFSGSGSGTQFILTISSLQPEDFATYYCQQLNSYPGFTFGPGTKVDIKR | binds | – |
| mAb10965 (antibody, V domains shown) VH: EVQLVESGGGLIQPGGSLRLSCAASVFTVSYNYMSWVRQAPGKGLEWVSVIYSGGSTYYADSVKGRFTISRDNSKNTLYLQMNSLRAEDTAVYYCARALPGWGGSFEYFDYWGQGTLVTVSS VL: not shown | binds | – |
| mAb10920 (antibody, V domains shown) VH: QVQLVESGGGVVQPGRSLRLSCAASGFTFSYYGMHWVRQAPGKGLEWVAVIWYDGSNKFYADSVKGRFTISRDNSKNTLYLQMNSLRAEDTAVYYCAAARPGYYYGMDVWGQGTTVTVSS VL: DIQMTQSPSSLSASVGDRVTITCRASQGISNYLAWFQQKPGKAPNSLIYAASSLQRGVPSKFSGSGSGTDFTLTISSLQPEDFATYYCQQYNSYPRTFGQGTKVEIKR | – | 0.338 nM and 0.139 nM |
| mAb10932 (antibody, V domains shown) VH: EVQLVESGGGLVQSGGSLRLSCAASGLTVSSNYMSWVRQAPGKGLEWVSVIYSGGSTFYSDSVKGRFTISRHNSKNTLYLQMNSLRAEDTAVYYCARARGDAFDIWGQGTMVTVSS VL: not shown | – | 0.373 nM |
| mAb11002 (antibody, V domains shown) VH: EVQLVESGGGLVQPGGSLRLSCAASGFTVSSNYMSWVRQAPGKGLEWVSVIYSGGSTFYADSVKGRFTISRHNSKNTLYLQMNSLRAEDTAVYYCAREGYGMDVWGQGTTVTVSS VL: not shown | binds | – |
| mAb11006 (antibody, V domains shown) VH: EVQLVESGGGLVQPGGSLRLSCAASGFIVSRNYMSWVRQAPGKGLEWVSVIYSGGSTFYADSVKGRFTISRHNSKNTLYLQMNSLKAEDTAVYYCARELRGYFDYWGQGTLVTVSS VL: DIQLTQSPSFLSASVGDRVTITCWASQGISSYLAWYQQKPGKAPKLLIYAASTLQSGVPSRFSGSGSGTEFTLTISSLQPEDFATYYCQLLNSYPYTFGQGTKLEIK | binds | – |
| mAb10915 (antibody, V domains shown) VH: EVQLVESGGGLVQPGGSLRLSCAASGFTVSSNYMNWVRQAPGKGLEWVSVIYSGGSTFYADSVKGRFTISRHNSKNTLYLQMNSLRPEDTAVYYCARDLGGYFDYWGQGTLVTVSS VL: not shown | – | 0.321 nM |
| mAb11008 (antibody, V domains shown) VH: EVQLVESGGGLVQPGGSLRLSCAASGFTVSSNYMTWVRQAPGKGLEWVSVIYSGGSTFYADSVKGRFTISRHNSENTLYLQMNSLRAEDTAVYYCARDLAAAGTDYWGQGALVTVSS VL: DIQLTQSPSFLSASVGDRVTITCWASQGISSYLAWYQQKPGKAPKLLIYAASTLQSGVPSRFSGSGSGTEFTLTISSLQPDDFATYYCQHLNSYLYTFGQGTKLEIK | binds | – |
| mAb11010 (antibody, V domains shown) VH: QVQLVESGGGVVQPGRSLRLSCAASGFTFSSYGMHWVRQAPGKGLEWVAVISYDGSYKYYADSVKGRFTISRDNSKNTLYLQMNSLRAEDTAVYYCAIDGGTVTTIFDYWGQGTLVTVSS VL: not shown | binds | – |
| mAb10966 (antibody, V domains shown) VH: EVQLVESGGGLVQPGGSLRLSCAASGLTVSSNYMSWVRQAPGKGLEWVSVIYSGGSTFYADSVKGRFTISRDNSKNTLYLQMNSLRPEDTAVYYCAREGRIAATGYGMDVWGQGTTVTVSS VL: not shown | binds | – |
| mAb10936 (antibody, V domains shown) VH: QVQLVESGGGVVQPGRSLRLSCAASGFTFRNYGMHWVRQAPGKGLEWVSVIWYDGSNRYYADSVKGRFTISRDTSKNTLYLQMNSLRAEDTAVYYCARDPPITGTTGGDAFDIWGQGTMVTVSS VL: not shown | – | 0.0875 nM and 0.071 nM |
| mAb10921 (antibody, V domains shown) VH: EVQLVESGGGLVQPGGSLRLSCAASGITVSSNYMSWVRQAPGKGLEWVSVIYSGGSTFYADSVKGRFTISRHNSKNTLYLQMNSLRAEDTAVYYCARERNFDAFDIWGQGTMVTVSS VL: DIQMTQSPSSVSASVGDRVTITCRASQGISSWLAWYQQKPGKAPKLLIYAASSLQSGVPSRFSGSGSGTDFTLTISSLQPEDFATYYCQQANSFPLFTFGPGTKVDIKR | – | 0.433 nM and 0.507 nM |
| mAb10930 (antibody, V domains shown) VH: EVQLVESGGGLVQPGRSLRLSCAASGFTFDDYAMYWVRQAPGKGLEWVSGISWNSGSIGYADSVKGRFTISRDNAKNSLYLQMNSLRAADTALYYCAKDKDWNSRGYYYYGMDVWGQGTTVTVSS VL: not shown | – | 0.282 nM |
| mAb10998 (antibody, V domains shown) VH: EVQLVESGGGLVHPGGSLRLSCAASGLTVSSNYMSWVRQAPGKGLEWVSVIYSGGSTYYADSVKGRFTISRHNSKNTLFLQMNSLRAEDTAVYYCARDRPITGTTLDVWGQGTTVTVSS VL: DIQMTQSPSSLFASVGDRVTITCRASQSISSYLNWYQQKPGKAPKLLIYAASSLQSGVPSRFSGSGSGTDFTLTISSLQPEDFAFYYCQQTYSTPPITFGQGTRLEIK | binds | – |
| mAb11004 (antibody, V domains shown) VH: QVQLVESGGGVVQPGRSLRLSCVASGFTFSIYGMDWVRQAPGKGLEWVAVISYDGSNKYYADSVKGRFTISRDNSKNTLYLQMNSLRPEDTAVYYCAKDREAAADAFDIWGQGTMVTVSS VL: DIQMTQSPSSVSASVGDRVTITCRASQGISSWLAWYQQKPGKAPKLLIYAASSLHSGVPSRFSGSGSGTDFTLTISSLQPEDFATYYCQQANSFRLTFGGGTKVEIK | binds | – |
| mAb10913 (antibody, V domains shown) VH: EVQLVESGGGLVQPGGSLRLSCAASGFTFRNYEMNWVRQAPGKGLEWVSYITSSGSTMYYADSVKGRFTISRDNAKNSLYLQMNSLRAEDTAVYYCARDGFYYYYAMDVWGQGTTVTVSS VL: QSVLTQPPSVSAAPGQKVTISCSGSSSNIGNNYVSWYQQLPGTAPKLLIYDNNKRPSGIPDRFSGSKSGTSATLGITGLQTGDEADYYCGTWDSSLSVGRVFGTGTKVTVLG [mAb10913, listing 1 of 2 here] | – | 0.217 nM |
| mAb10913 (antibody, V domains shown) VH: EVQLVESGGGLVQPGGSLRLSCAASGFTFRNYEMNWVRQAPGKGLEWVSYITSSGSTMYYADSVKGRFTISRDNAKNSLYLQMNSLRAEDTAVYYCARDGFYYYYAMDVWGQGTTVTVSS VL: QSVLTQPPSVSAAPGQKVTISCSGSSSNIGNNYVSWYQQLPGTAPKLLIYDNNKRPSGIPDRFSGSKSGTSATLGITGLQTGDEADYYCGTWDSSLSVGRVFGTGTKVTVLG [mAb10913, listing 2 of 2 here] | binds | – |
| mAb10937 (antibody, V domains shown) VH: QITLKESGPTLVKPTQTLTLTCTFSGFSLSTNVVGVGWIRQPPGKALEWLALIYWNDDKRYSPSLKSRLTITKDTSKNQVVLTMTNMDPVDTATYYCAHGPTGDYFDYWGQGTLVTVSS VL: not shown | – | 0.0649 nM |
| mAb10923 (antibody, V domains shown) VH: QVQLVQSGAEVKKPGASVKVSCKASGYTFINYYIHWVRQAPGQGLEWMGWINPNSGGTNYAQKFQGRVTMTRDTSISTAYMELSRLRSDDTAVYYCAIITIFGVVTWFDPWGQGTLVTVSS VL: not shown | – | 0.149 nM and 0.184 nM |
| mAb10967 (antibody, V domains shown) VH: EVQLVESGGGLVQPGGSLRLSCAASGFTVSSNYMSWVRQAPGKGLEWVSVIYPGGSTFYADSVKGRFTISRDNSKNTLYLQMNSLRAEDTAVYYCARDQRDFAWGQGTLVTVSS VL: DIQMTQSPSSLSASVGDRVTITCQASQDISNYLNWYQQKPGKAPKLLIYDASNLETGVPSRFSGSGSGTDFTFTISGLQPEDIATYYCQQYDNLPPTFGQGTRLEIKR | binds | – |
| mAb10954 (antibody, V domains shown) VH: EVQLVESGGGLVQPGGSLRLSCAASGITVSSNYMSWVRQAPGKGLEWVSLIYSGGSTYYADSVKGRFTISRDNSKNTLYLQMNSLRVEDTAVYYCARDHGMAAAGYNYWGQGTLVTVSS VL: DIQMTQSPSSLSASVGDRVTITCQASQDINKYLNWYQQKPGKAPKLLIYDASNLETGVPSRFSGSGSGTDFTFTINSLQPEDFATYFCQQYDNLPPAFGQGTKVEIKR | binds | – |
| mAb10935 (antibody, V domains shown) VH: EVQLVESGGGLVQPGGSLRLSCAASGFTVSSNYMSWVRQAPGKGLEWVSLIYSGGSTYYADSVKGRFTISRHNSKNTLYLQMNSLRSEDTAVYYCARVPLGDYYYGMDVWGQGTTVTVSS VL: DIQMTQSPSSLSASVGDRVTITCQASQDINKYLNWYQQKPGKAPKLLIYDASNLETGVPSRFSGSGSGTDFTFTISSLQPEDIATYYCQQSDNLPLTFGGGTKVEIKR | – | 0.102 nM and 0.0694 nM |
| mAb10955 (antibody, V domains shown) VH: EVQLVESGGGLVQPGGSLRVSCAASGFTVSRNYMSWVRQAPGKGLEWVSVIYSGGSTFYADSVKGRFTISRDNSKNTLYLQMNSLRAEDTAIYYCARYIPRFDPWGQGTLVTVSS VL: DIQMTQSPSSLSASVGDRVTITCQASQDISNYLNWFQQKPGRAPKLLIYDASNLETGVPSRFSGSGSGTDFTFTISSLQPEDIATYYCQQYDNLPITFGQGTRLEIKR | binds | – |
